Experimental data taken from patent US20190359693A1.

Tests used:
Test in all cases: cell-based or functional assay
[1] = target: hemagglutinin (HA) of influenza virus H3N2 A/HK/1174/99 (influenza A virus)
[2] = target: hemagglutinin (HA) of influenza virus H7N9 A/Shanghai/2/13 (influenza A virus)
[3] = target: hemagglutinin (HA) of influenza B/Brisbane/60/08 (Victoria) (influenza B virus)
[4] = target: hemagglutinin (HA) of influenza virus H1N1 A/Solomon Islands/3/2006 (IVR 145) (influenza A virus)
[5] = target: hemagglutinin (HA) of influenza virus H8N4 A/Eurasian Wigeon/MPH571/08 (influenza A virus)
[6] = target: hemagglutinin (HA) of influenza virus H4 A/WF/HK/MPA892/06 (influenza A virus)
[7] = target: hemagglutinin (HA) of influenza virus H3N2 A/Victoria/210/09 (influenza A virus)
[8] = target: hemagglutinin (HA) of influenza virus H7N7 A/PR8 H7N7-NY (influenza A virus)
[9] = target: hemagglutinin (HA) of influenza virus H9N2 A/HK/466419/09 (influenza A virus)
[10] = target: hemagglutinin (HA) of influenza virus H1N2 A/Env/HK/MPU3156/05 (influenza A virus)
[11] = target: hemagglutinin (HA) of influenza virus H5N1 A/Vietnam/1194/04 (influenza A virus)
[12] = target: hemagglutinin (HA) of influenza virus H2N2 A/AnnArbor/23/57 (influenza A virus)
[13] = target: hemagglutinin (HA) of influenza virus H2N2 A/Env/HK/MPU3156/05 (influenza A virus)
[14] = target: hemagglutinin (HA) of influenza virus H1N1 A/Brisbane/59/07 (influenza A virus)
[15] = target: hemagglutinin (HA) of influenza virus H3N2 A/Fukui/45/04 (influenza A virus)
[16] = target: hemagglutinin (HA) of influenza virus H10N7 A/Chick/Germany/N/49 (influenza A virus)
[17] = target: hemagglutinin (HA) of influenza virus H4N6 A/Great Cormorant/MPB1683/06 (influenza A virus)
[18] = target: hemagglutinin (HA) of influenza virus H3N2 A/HK/1/68-MA (influenza A virus)
[19] = target: hemagglutinin (HA) of influenza virus H5N2 A/Eurasian Wigeon/HK/MPF333/07 (influenza A virus)
[20] = target: hemagglutinin (HA) of influenza virus H3N2 A/Panama/2007/99 (influenza A virus)
[21] = target: hemagglutinin (HA) of influenza virus H3N2 A/Johannesburg/33/94 (influenza A virus)
[22] = target: hemagglutinin (HA) of influenza virus H7N9 A/Anhui/1/13 (influenza A virus)
[23] = target: hemagglutinin (HA) of influenza virus H10N8 A/Jiangxi/346/2013 (influenza A virus)
[24] = target: hemagglutinin (HA) of influenza virus H14N5 A/Mallard/Astrakhan/263/1982 (influenza A virus)
[25] = target: hemagglutinin (HA) of influenza virus H1N1 A/Puerto Rico/8/34-MA (influenza A virus)
[26] = target: hemagglutinin (HA) of influenza virus H7N7 A/Common Teal/MPF139/07 (influenza A virus)
[27] = target: hemagglutinin (HA) of influenza virus H1N1 A/HK/54/98 (influenza A virus)
[28] = target: hemagglutinin (HA) of influenza virus B/Brisbane/60/08 (Victoria) (influenza B virus)
[29] = target: hemagglutinin (HA) of influenza virus H9N2 A/Great Cormorant/MP2934/04 (influenza A virus)
[30] = target: hemagglutinin (HA) of influenza B/Florida/04/06 (Yamagata) (influenza B virus)
[31] = target: hemagglutinin (HA) of influenza virus H1N1 A/WSN/33 (influenza A virus) (UniProt P03454)
[32] = target: hemagglutinin (HA) of influenza virus H3N2 A/Perth/16/09 (influenza A virus)
[33] = target: hemagglutinin (HA) of influenza virus H5N1 A/Indonesia/5/05 (influenza A virus)
[34] = target: hemagglutinin (HA) of influenza virus H3N2 A/Wisconsin/67/05 (influenza A virus)
[35] = target: hemagglutinin (HA) of influenza virus B/Lee/40 (Old) (influenza B virus) (UniProt P03460)
hemagglutinin (HA) of influenza virus B/Lee/40 (Old) (influenza B virus), sequence (P03460 16-584 limits assumed): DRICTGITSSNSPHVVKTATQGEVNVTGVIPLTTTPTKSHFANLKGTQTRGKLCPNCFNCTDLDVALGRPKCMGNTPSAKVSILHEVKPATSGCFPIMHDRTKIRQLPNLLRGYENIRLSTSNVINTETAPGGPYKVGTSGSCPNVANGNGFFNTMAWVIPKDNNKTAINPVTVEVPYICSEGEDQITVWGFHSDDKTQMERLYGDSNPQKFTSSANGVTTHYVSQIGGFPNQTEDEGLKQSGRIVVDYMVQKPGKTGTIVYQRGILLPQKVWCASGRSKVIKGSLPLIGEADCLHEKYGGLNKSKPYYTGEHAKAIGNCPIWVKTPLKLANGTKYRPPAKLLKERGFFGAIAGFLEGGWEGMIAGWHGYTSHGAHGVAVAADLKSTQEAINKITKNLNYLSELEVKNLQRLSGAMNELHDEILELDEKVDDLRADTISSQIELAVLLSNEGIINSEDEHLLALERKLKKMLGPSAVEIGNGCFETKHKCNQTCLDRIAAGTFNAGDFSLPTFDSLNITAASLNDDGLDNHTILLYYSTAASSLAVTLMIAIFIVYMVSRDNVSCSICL

[36] = target: hemagglutinin (HA) of influenza virus B/Massachusetts/02/12 (Yamagata) (influenza B virus)
[37] = target: hemagglutinin (HA) of influenza virus H6N8 A/Eurasian Wigeon/MPD411/07 (influenza A virus)
[38] = target: hemagglutinin (HA) of influenza virus H5N2 A/Eurasian Wigeon/MPF461/07 (influenza A virus)
[39] = target: hemagglutinin (HA) of influenza virus H8N2 A/Env/MPJ1258/09 (influenza A virus)
[40] = target: hemagglutinin (HA) of influenza virus H5N1 A/PR8 H5N1 HK97 (influenza A virus)
[41] = target: hemagglutinin (HA) of influenza virus B/Malaysia/2506/04 (Victoria) (influenza B virus)
[42] = target: hemagglutinin (HA) of influenza virus H1N1 A/Mississippi/03/01 274H (influenza A virus)
[43] = target: hemagglutinin (HA) of influenza virus H3N2 A/Aichi/2/68 (influenza A virus) (UniProt P03437)
[44] = target: hemagglutinin (HA) of influenza virus H11N9 A/Northern Pintail/MPC2085/07 (influenza A virus)

B1: MD2407 (bispecific antibody)
chain: EVQLVESGGGLVQPGGSLRLSCAVSISIFDIYAMDWYRQAPGKQRDLVATSFRDGSTNYADSVKGRFTISRDNAKNTLYLQMNSLKPEDTAVYLCHVSLYRDPLGVAGGMGVYWGKGALVTVSSGGGGSGGGGSEVQLVESGGGLVQAGGSLKLSCAASGRTYAMGWFRQAPGKEREFVAHINALGTRTYYSDSVKGRFTISRDNAKNTEYLEMNNLKPEDTAVYYCTAQGQWRAAPVAVAAEYEFWGQGTQVTVSSGGGGSGGGGSEVQLVESGGGLVQPGGSLRLSCAATGFTLENKAIGWFRQTPGSEREGVLCISKSGSWTYYTDSMRGRFTISRDNAENTVYLQMDSLKPEDTAVYYCATTTAGGGLCWDGTTFSRLASSWGQGTQVTVSSGGGGSGGGGSEVQLVESGGGLVQPGGSLKLSCAASGFTFSTSWMYWLRQAPGKGLEWVSVINTDGGTYYADSVKDRFTISRDNAKDTLYLQMSSLKSEDTAVYYCAKDWGGPEPTRGQGTQVTVSS
Q: With B1 as the binder, how does the average neutralization titer [1] read?
A: Its average neutralization titer is 76 nM.

Q: And the average neutralization titer [2]?
A: The average neutralization titer was 54.2 nM.

Q: What about the ADCC induction (EC50 grade, FcγRIIIa reporter bioassay) [3] of the same binder?
A: The ADCC induction (EC50 grade, FcγRIIIa reporter bioassay) was over 0.5 µg/mL.

Q: And the average neutralization titer [4]?
A: Its average neutralization titer is 5.4 nM.

Q: And the average neutralization titer [5]?
A: Its average neutralization titer is 15.1 nM.

Q: And the average neutralization titer [6]?
A: Its average neutralization titer is 6.8 nM.

Q: What about the average neutralization titer [7] of the same binder?
A: The average neutralization titer was 6.5 nM.

Q: And the average neutralization titer [8]?
A: Its average neutralization titer is 22.3 nM.

Q: What about the average neutralization titer [9] of the same binder?
A: The average neutralization titer was 53.9 nM.

Q: And the average neutralization titer [10]?
A: Its average neutralization titer is 25.6 nM.

Q: What about the average neutralization titer [11] of the same binder?
A: The average neutralization titer was 9.2 nM.

Q: And the average neutralization titer [12]?
A: Its average neutralization titer is 101 nM.

Q: What about the average neutralization titer [13] of the same binder?
A: Its average neutralization titer is 19.2 nM.

Q: What about the average neutralization titer [14] of the same binder?
A: The average neutralization titer was 3.7 nM.

Q: What about the average neutralization titer [15] of the same binder?
A: The average neutralization titer was 19.2 nM.

Q: And the average neutralization titer [16]?
A: Its average neutralization titer is 13.2 nM.

Q: What about the average neutralization titer [17] of the same binder?
A: The average neutralization titer was 4.8 nM.

Q: What about the average neutralization titer [18] of the same binder?
A: Its average neutralization titer is 25.9 nM.

Q: And the average neutralization titer [19]?
A: The average neutralization titer was 26 nM.

Q: And the average neutralization titer [20]?
A: Its average neutralization titer is 14.9 nM.

Q: And the average neutralization titer [21]?
A: Its average neutralization titer is 11.6 nM.

Q: And the average neutralization titer [22]?
A: Its average neutralization titer is 64.6 nM.

Q: And the average neutralization titer [23]?
A: Its average neutralization titer is 30.4 nM.

Q: And the average neutralization titer [24]?
A: Its average neutralization titer is 19.2 nM.

Q: What about the average neutralization titer [25] of the same binder?
A: The average neutralization titer was 7.3 nM.

Q: What about the average neutralization titer [26] of the same binder?
A: Its average neutralization titer is 57.4 nM.

Q: And the average neutralization titer [27]?
A: Its average neutralization titer is 10.3 nM.

Q: What about the average neutralization titer [28] of the same binder?
A: Its average neutralization titer is 4.1 nM.

Q: And the average neutralization titer [29]?
A: Its average neutralization titer is 19.6 nM.

Q: And the ADCC induction (EC50 grade, FcγRIIIa reporter bioassay) [30]?
A: The ADCC induction (EC50 grade, FcγRIIIa reporter bioassay) was over 0.5 µg/mL.

Q: What about the average neutralization titer [31] of the same binder?
A: Its average neutralization titer is 4.8 nM.

Q: And the average neutralization titer [32]?
A: The average neutralization titer was 8.1 nM.

Q: What about the average neutralization titer [33] of the same binder?
A: The average neutralization titer was 16.2 nM.

Q: And the average neutralization titer [34]?
A: Its average neutralization titer is 19.1 nM.

Q: What about the average neutralization titer [35] of the same binder?
A: The average neutralization titer was 18.4 nM.

Q: And the average neutralization titer [36]?
A: The average neutralization titer was 3 nM.

Q: And the average neutralization titer [37]?
A: Its average neutralization titer is 20.9 nM.

Q: What about the average neutralization titer [38] of the same binder?
A: Its average neutralization titer is 16.6 nM.

Q: What about the average neutralization titer [39] of the same binder?
A: Its average neutralization titer is 8.8 nM.

Q: And the average neutralization titer [40]?
A: The average neutralization titer was 3.6 nM.

Q: And the average neutralization titer [41]?
A: Its average neutralization titer is 9.2 nM.

Q: And the average neutralization titer [42]?
A: The average neutralization titer was 4.8 nM.

Q: What about the average neutralization titer [43] of the same binder?
A: Its average neutralization titer is 9.9 nM.

Q: And the average neutralization titer [44]?
A: The average neutralization titer was 34.5 nM.
